The source of these data is patent publication US7816499B2, “Antibodies that selectively bind HDAC9” (Sloan-Kettering Institute for Cancer Research, priority 2001, dated 2010).

The target in one series is HDAC9-FLAG (Homo sapiens, UniProt Q9UKV0). Particulars: FLUOR DE LYS substrate; TSA 1 μM (FIG. 7), preincubated 15 minutes at room temperature; SAHA concentration not given.
Series [1] deals with T1, HDAC9a-FLAG (Homo sapiens, UniProt Q9UKV0). Particulars: FLUOR DE LYS substrate; TSA 1 μM (FIG. 7), preincubated 15 minutes at room temperature; SAHA concentration not given.
Series [2] deals with T1, HDAC9a-FLAG. As to the kind of experiment: HDAC enzymatic assay, 3H-acetic acid released from 3H-histones. Type of series: biochemical. On the set-up: made in house; host or cells: human kidney 293T cells, transient transfection, anti-FLAG M2 agarose immunoprecipitation, elution with FLAG peptide. Particulars: 3H-histones substrate; SAHA 2 μM (FIG. 8); preincubated 30 minutes at 4° C. As to the method:
The reaction was stopped by the addition of 1M HCl/0.1 acetic acid. Released ^3H-acetic acid was extracted with ethyl acetate and quantified by scintillation counting. For inhibition studies, the immunoprecipitated complexes were preincubated with the different HDAC inhibitors for 30 minutes at 4° C.

A short description of series [3]: HDAC enzymatic activity of immunoprecipitated HDAC9/HDAC9a compared with HDAC4. It is filed as biochemical. Particulars: comparable amount of protein; immunoprecipitated from 293T cells.
In a further series the test system is MEF2. As to the kind of experiment: Anti-FLAG immunoprecipitation and anti-MEF2 Western blot. It is filed as binding, human. Particulars: 293T cells, anti-FLAG IP, anti-MEF2 Western. As to the method: The Xenopus homolog of HDRP, MITR, was identified as a MEF2 interacting transcriptional repressor (Sparrow et al., EMBO J. 18:5085-5098(1999)) and mouse HDRP also interacts with and represses MEF2 mediated transcription (Zhang et al., J. Biol. Chem. 276:35-39 (2001)). […] 293 cells were transfected with vector, HDAC9-FLAG, or HDAC9a-FLAG. […] Western blot analysis of the immunoprecipitated proteins was carried out, using anti-MEF-2 antibody to probe the blot.
On the technique in general: Immunoblotting shows a protein as a band on a membrane.

Series [4] has as its system MEF2C mediated transcriptional activation. As to the kind of experiment: p3XMEF2-luciferase reporter assay in 293T cells. Particulars: p3XMEF2-Luc; for repression of MEF2C mediated transcriptional activation: 1 ng, 10 ng, or 100 ng of plasmid; for MEF2C mediated transcriptional activation at the 100 ng dose: 100 ng plasmid. It is filed as cell-based, human. How it is done: It was then determined whether HDAC9 and HDAC9a repress MEF2-mediated transcription. This determination was carried out as follows. The p3XMEF2-luciferase reporter gene (100 ng) and the vector pRL-TK (Promega) (5 ng) were co-transfected into 293T cells in the absence (pcDNA3 empty vector) or presence of MEF2C (100 ng of pCMV-MEF2C). HDAC9-F (1 ng, 10 ng, or 100 ng of pFLAG-HDAC9; pFLAG-HDAC9 and HDAC9-FLAG are different constructs, with the FLAG sequence located at opposite ends of the HDAC9 nucleotide, but are functionally equivalent) or HDAC9a-F (1 ng, 10 ng, or 100 ng of pFLAG-HDAC9a; pFLAG-HDAC9a and HDAC9a-FLAG are different constructs, with the FLAG sequence located at opposite ends of the HDAC9a nucleotide, but are functionally equivalent) was included in a subset of experimental groups with the MEF2C vector. pFLAG empty vector was used to adjust the DNA to an equal amount in each transfection. The cells were harvested 24 to 36 hours after transfection and the luciferase activities were measured using the Dual-Luciferase™ Reporter Assay System from Promega according to the manufacturer's instruction. The firefly luciferase activity was first normalized to the co-transfected Renilla luciferase activity (encoded by the pRL-TK vector), and the luciferase activity value for cells transfected with MEF2C alone was set at 1. MEF2C activated transcription over 30 times the basal level of transcription. […] The transcriptional repression effect of HDAC9 and HDAC9a on MEF2C mediated transcription was a specific effect since a co-transfected reporter gene for transfection efficiency containing a TK promoter was not repressed by HDAC9 or HDAC9a.
(Reporter assays use an easily measured gene product as a stand-in for the process of interest.)

Protocol for HDAC9-FLAG: Cells were harvested 24 to 48 hours after transfection and lysed in IP lysis buffer (50 mM Tris HCl, pH 7.5/120 mM NaCl/5 mM EDTA/0.5% NP-40) at 5×10^7 cells per ml. Immunoprecipitation with anti-FLAG M2-agarose (Sigma, St. Louis, Mo.) was performed according to the manufacturer's instructions. Immunoprecipitated proteins were released from the agarose beads by using FLAG-peptide and either used directly for HDAC enzymatic activity assays or resolved on SDS/PAGE for Western blot analyses.
HDAC9 and HDAC9a enzymatic activity were assessed with the HDAC Fluorescent Activity Assay/Drug Discovery Kit-AK-500 (BIOMOL Research Laboratories) using a FLUOR DE LYS™ that contains an acetylated lysine side chain as a substrate and immunoprecipitated HDAC9-FLAG and HDAC9a-FLAG polypeptides according to the manufacturer's instruction and a SPECTRAmax® GEMINI XS microplate spectrofluorometer using the SOFTmax® PRO system (Molecular Devices) at excitation 355 nm and emission 460 nm with a cut off filter of 455 nm. Briefly, HDAC9-FLAG and HDAC9a-FLAG were incubated with the substrate overnight at room temperature in a 96-well plate. The reaction was stopped by addition of Fluor De Lys™ Developer and samples were read with the fluorometer. […]

In the case of `O=C(CCCCCCC(=O)Nc1ccccc1)NO` [SAHA, suberoylanilide hydroxamic acid], the “inhibition of HDAC9 deacetylase activity” value against HDAC9-FLAG is given as “completely inhibited”. Also, the “inhibition of HDAC9a deacetylase activity” value against HDAC9a-FLAG [1] is “completely inhibited”. Also, the “inhibition of histone deacetylase activity of HDAC9a-FLAG” value on HDAC9a-FLAG [2] is given as “completely inhibited”.

B1: HDAC9a: alternatively spliced isoform of HDAC9, 879 amino acids (SEQ ID NO: 4); tested as FLAG-tagged protein (protein, listed as Homo sapiens)
chain: MHSMISSVDVKSEVPVGLEPISPLDLRTDLRMMMPVVDPVVREKQLQQELLLIQQQQQIQKQLLIAEFQKQHENLTRQHQAQLQEHIKELLAIKQQQELLEKEQKLEQQRQEQEVERHRREQQLPPLRGKDRGRERAVASTEVKQKLQEFLLSKSATKDTPTNGKNHSVSRHPKLWYTAAHHTSLDQSSPPLSGTSPSYKYTLPGAQDAKDDFPLRKTASEPNLKVRSRLKQKVAERRSSPLLRRKDGNVVTSFKKRMFEVTESSVSSSSPGSGPSSPNNGPTGSVTENETSVLPPTPHAEQMVSQQRILIHEDSMNLLSLYTSPSLPNITLGLPAVPSQLNASNSLKEKQKCETQTLRQGVPLPGQYGGSIPASSSHPHVTLEGKPPNSSHQALLQHLLLKEQMRQQKLLVAGGVPLHPQSPLATKERISPGIRGTHKLPRHRPLNRTQSAPLPQSTLAQLVIQQQHQQFLEKQKQYQQQIHMNKLLSKSIEQLKQPGSHLEEAEEELQGDQAMQEDRAPSSGNSTRSDSSACVDDTLGQVGAVKVKEEPVDSDEDAQIQEMESGEQAAFMQQPFLEPTHTRALSVRQAPLAAVGMDGLEKHRLVSRTHSSPAASVLPHPAMDRPLQPGSATGIAYDPLMLKHQCVCGNSTTHPEHAGRIQSIWSRLQETGLLNKCERIQGRKASLEEIQLVHSEHHSLLYGTNPLDGQKLDPRILLGDDSQKFFSSLPCGGLGVDSDTIWNELHSSGAARMAVGCVIELASKVASGELKNGFAVVRPPGHHAEESTAMGFCFFNSVAITAKYLRDQLNISKILIVDLDVHHGNGTQQAFYADPSILYISLHRYDEGNFFPGSGAPNEVRFISLEPHFYLYLSGNCIA
modifications: FLAG tag
notes: tested as FLAG-tagged protein
In the case of B1, the “HDAC activity relative to the deacetylase activity of HDAC4” value in series [3] was “about ten times lower”. Moreover, the “interaction with MEF2” value in the series on MEF2 is “interacted with MEF2”. In series [4], the “repression of MEF2C mediated transcriptional activation” value is “in a dose-dependent manner” and the “MEF2C mediated transcriptional activation at the 100 ng dose” value is reported as “completely abolished”.

B2: HDAC9: novel class II histone deacetylase, 1011 amino acids (SEQ ID NO: 2); tested as FLAG-tagged protein (protein, listed as Homo sapiens)
chain: MHSMISSVDVKSEVPVGLEPISPLDLRTDLRMMMPVVDPVVREKQLQQELLLIQQQQQIQKQLLIAEFQKQHENLTRQHQAQLQEHIKELLAIKQQQELLEKEQKLEQQRQEQEVERHRREQQLPPLRGKDRGRERAVASTEVKQKLQEFLLSKSATKDTPTNGKNHSVSRHPKLWYTAAHHTSLDQSSPPLSGTSPSYKYTLPGAQDAKDDFPLRKTASEPNLKVRSRLKQKVAERRSSPLLRRKDGNVVTSFKKRMFEVTESSVSSSSPGSGPSSPNNGPTGSVTENETSVLPPTPHAEQMVSQQRILIHEDSMNLLSLYTSPSLPNITLGLPAVPSQLNASNSLKEKQKCETQTLRQGVPLPGQYGGSIPASSSHPHVTLEGKPPNSSHQALLQHLLLKEQMRQQKLLVAGGVPLHPQSPLATKERISPGIRGTHKLPRHRPLNRTQSAPLPQSTLAQLVIQQQHQQFLEKQKQYQQQIHMNKLLSKSIEQLKQPGSHLEEAEEELQGDQAMQEDRAPSSGNSTRSDSSACVDDTLGQVGAVKVKEEPVDSDEDAQIQEMESGEQAAFMQQPFLEPTHTRALSVRQAPLAAVGMDGLEKHRLVSRTHSSPAASVLPHPAMDRPLQPGSATGIAYDPLMLKHQCVCGNSTTHPEHAGRIQSIWSRLQETGLLNKCERIQGRKASLEEIQLVHSEHHSLLYGTNPLDGQKLDPRILLGDDSQKFFSSLPCGGLGVDSDTIWNELHSSGAARMAVGCVIELASKVASGELKNGFAVVRPPGHHAEESTAMGFCFFNSVAITAKYLRDQLNISKILIVDLDVHHGNGTQQAFYADPSILYISLHRYDEGNFFPGSGAPNEVGTGLGEGYNINIAWTGGLDPPMGDVEYLEAFRTIVKPVAKEFDPDMVLVSAGFDALEGHTPPLGGYKVTAKCFGHLTKQLMTLADGRVVLALEGGHDLTAICDASEACVNALLGNELEPLAEDILHQSPNMNAVISLQKIIEIQSMSLKFS
modifications: FLAG tag
notes: tested as FLAG-tagged protein
In the case of B2, in series [3], the “HDAC activity relative to the deacetylase activity of HDAC4” value is “about ten times lower”. Moreover, the “interaction with MEF2” value in the series on MEF2 is listed as “interacted with MEF2”. Also, in series [4], the “repression of MEF2C mediated transcriptional activation” value is recorded as “in a dose-dependent manner” and the “MEF2C mediated transcriptional activation at the 100 ng dose” value is reported as “completely abolished”.
